According to patent publication US20250295737A1 (AstraZeneca / MedImmune, published 2025):
Changes are numbered by the printed parent chain. Read-outs that look alike come from different tables or passages of the source.

T1: mouse RXFP1 (mouse, UniProt Q6R6I7 1-758)
T1 sequence (looked up): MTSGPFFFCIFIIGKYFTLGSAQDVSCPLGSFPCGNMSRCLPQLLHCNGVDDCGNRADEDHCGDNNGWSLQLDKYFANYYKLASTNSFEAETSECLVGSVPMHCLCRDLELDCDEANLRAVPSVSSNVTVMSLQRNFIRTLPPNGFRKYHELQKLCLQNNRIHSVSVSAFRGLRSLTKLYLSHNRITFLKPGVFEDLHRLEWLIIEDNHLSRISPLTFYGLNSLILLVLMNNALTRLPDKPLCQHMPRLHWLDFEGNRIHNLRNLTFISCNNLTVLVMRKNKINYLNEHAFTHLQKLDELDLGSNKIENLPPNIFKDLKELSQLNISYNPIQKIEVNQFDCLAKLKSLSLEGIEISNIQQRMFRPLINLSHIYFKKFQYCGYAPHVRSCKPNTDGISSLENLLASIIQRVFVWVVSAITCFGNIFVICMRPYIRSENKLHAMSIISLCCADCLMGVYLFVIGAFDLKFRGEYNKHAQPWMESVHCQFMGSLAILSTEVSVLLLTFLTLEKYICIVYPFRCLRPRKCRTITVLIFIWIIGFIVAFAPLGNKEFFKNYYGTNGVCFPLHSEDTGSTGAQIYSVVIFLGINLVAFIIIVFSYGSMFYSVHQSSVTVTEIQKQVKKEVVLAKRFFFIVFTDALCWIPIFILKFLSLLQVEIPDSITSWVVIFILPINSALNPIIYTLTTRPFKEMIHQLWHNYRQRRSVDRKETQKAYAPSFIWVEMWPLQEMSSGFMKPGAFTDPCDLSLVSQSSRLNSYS

T2: human RXFP1 (human, UniProt Q9HBX9 1-757)
T2 sequence (looked up): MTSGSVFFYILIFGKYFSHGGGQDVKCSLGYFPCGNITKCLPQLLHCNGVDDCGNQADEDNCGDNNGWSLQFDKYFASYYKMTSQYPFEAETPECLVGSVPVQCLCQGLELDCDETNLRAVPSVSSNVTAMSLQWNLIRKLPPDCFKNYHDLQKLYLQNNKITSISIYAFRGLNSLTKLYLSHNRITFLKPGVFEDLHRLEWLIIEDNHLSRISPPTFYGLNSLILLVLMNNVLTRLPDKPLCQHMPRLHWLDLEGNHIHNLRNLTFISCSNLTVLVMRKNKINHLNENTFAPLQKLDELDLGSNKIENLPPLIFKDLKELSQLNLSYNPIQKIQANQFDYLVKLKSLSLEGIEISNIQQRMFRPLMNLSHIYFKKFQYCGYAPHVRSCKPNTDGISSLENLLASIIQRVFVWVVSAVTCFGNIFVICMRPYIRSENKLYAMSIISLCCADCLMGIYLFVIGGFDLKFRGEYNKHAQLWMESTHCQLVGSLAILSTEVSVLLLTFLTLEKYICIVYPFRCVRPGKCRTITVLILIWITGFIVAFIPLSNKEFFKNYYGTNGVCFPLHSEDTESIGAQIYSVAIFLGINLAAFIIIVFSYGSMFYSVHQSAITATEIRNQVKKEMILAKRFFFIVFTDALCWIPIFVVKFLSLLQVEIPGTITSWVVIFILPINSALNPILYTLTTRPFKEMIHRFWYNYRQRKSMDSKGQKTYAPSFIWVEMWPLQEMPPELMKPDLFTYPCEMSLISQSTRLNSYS

B1: RELAX0091 (Fc fusion)
chain 1: QLYSALANKCCHVGCTKRSLARFCAAAGGGGSGGGGSGGGGSGGGGSACPPCPAPEFEGGPSVFLFPPKPKDTLMISRTPEVTCVVVDVSHEDPEVKFNWYVDGVEVHNAKTKPREEQYNSTYRVVSVLTVLHQDWLNGKEYKCKVSNKALPASIEKTISKAKGQPREPQVYTLPPCREEMTKNQVSLWCLVKGFYPSDIAVEWESNGQPENNYKTTPPVLDSDGSFFLYSKLTVDKSRWQQGNVFSCSVMHEALHNHYTQKSLSLSPG
chain 2: SWMEEVIKLCGRELVRAQIAICGMSTWSAAAGGGGSGGGGSGGGGSGGGGSACPPCPAPEFEGGPSVFLFPPKPKDTLMISRTPEVTCVVVDVSHEDPEVKFNWYVDGVEVHNAKTKPREEQYNSTYRVVSVLTVLHQDWLNGKEYKCKVSNKALPASIEKTISKAKGQPREPQVCTLPPSREEMTKNQVSLSCAVKGFYPSDIAVEWESNGQPENNYKTTPPVLDSDGSFFLVSKLTVDKSRWQQGNVFSCSVMHEALHNHYTQKSLSLSPG
B2: RELAX0020 (Fc fusion)
chain 1: GGAGGACPPCPAPEFEGGPSVFLFPPKPKDTLMISRTPEVTCVVVDVSHEDPEVKFNWYVDGVEVHNAKTKPREEQYNSTYRVVSVLTVLHQDWLNGKEYKCKVSNKALPASIEKTISKAKGQPREPQVYTLPPCREEMTKNQVSLWCLVKGFYPSDIAVEWESNGQPENNYKTTPPVLDSDGSFFLYSKLTVDKSRWQQGNVFSCSVMHEALHNHYTQKSLSLSPGGGGGSGGGGSGGGGSGGGGGSSWMEEVIKLCGRELVRAQIAICGMSTWS
chain 2: GGAGGACPPCPAPEFEGGPSVFLFPPKPKDTLMISRTPEVTCVVVDVSHEDPEVKFNWYVDGVEVHNAKTKPREEQYNSTYRVVSVLTVLHQDWLNGKEYKCKVSNKALPASIEKTISKAKGQPREPQVCTLPPSREEMTKNQVSLSCAVKGFYPSDIAVEWESNGQPENNYKTTPPVLDSDGSFFLVSKLTVDKSRWQQGNVFSCSVMHEALHNHYTQKSLSLSPGGGGGSGGGGSGGGGSGGGGGSQLYSALANKCCHVGCTKRSLARFC
B3: RELAX0053 (Fc fusion)
chain 1: DKTHTACPPCPAPEFEGGPSVFLFPPKPKDTLMISRTPEVTCVVVDVSHEDPEVKFNWYVDGVEVHNAKTKPREEQYNSTYRVVSVLTVLHQDWLNGKEYKCKVSNKALPASIEKTISKAKGQPREPQVYTLPPCREEMTKNQVSLWCLVKGFYPSDIAVEWESNGQPENNYKTTPPVLDSDGSFFLYSKLTVDKSRWQQGNVFSCSVMHEALHNHYTQKSLSLSPGGGGGSGGGGSGGGGSGGGGGSQLYSALANKCCHVGCTKHSLARFC
chain 2: DKTHTCPPCPAPEFEGGPSVFLFPPKPKDTLMISRTPEVTCVVVDVSHEDPEVKFNWYVDGVEVHNAKTKPREEQYNSTYRVVSVLTVLHQDWLNGKEYKCKVSNKALPASIEKTISKAKGQPREPQVCTLPPSREEMTKNQVSLSCAVKGFYPSDIAVEWESNGQPENNYKTTPPVLDSDGSFFLVSKLTVDKSRWQQGNVFSCSVMHEALHNHYTQKSLSLSPGGGGGSGGGGSGGGGSGGGGGSSWMEEVIKLCGRELVRAQIAICGMSTWS
B4: RELAX0073 (Fc fusion)
chain 1: DKTHTCPPCPAPEFEGGPSVFLFPPKPKDTLMISRTPEVTCVVVDVSHEDPEVKFNWYVDGVEVHNAKTKPREEQYNSTYRVVSVLTVLHQDWLNGKEYKCKVSNKALPASIEKTISKAKGQPREPQVYTLPPCREEMTKNQVSLWCLVKGFYPSDIAVEWESNGQPENNYKTTPPVLDSDGSFFLYSKLTVDKSRWQQGNVFSCSVMHEALHNHYTQKSLSLSPGGGGGSGGGGSGGGGSGGGGGSQLYSALANKCCHVGCTKRSLAYFC
chain 2: B3 chain 2
B5: RELAX0063 (Fc fusion)
chain 1: B4 chain 1 with Y269R, F270A
chain 2: B3 chain 2
B6: RELAX0074 (Fc fusion)
chain 1: B4 chain 1 with Y269S
chain 2: B3 chain 2
B7: RELAX0070 (Fc fusion)
chain 1: B4 chain 1 with Y269I
chain 2: B3 chain 2
B8: RELAX0071 (Fc fusion)
chain 1: B4 chain 1 with Y269Q
chain 2: B3 chain 2
B9: RELAX0024 (Fc fusion)
chain 1: B4 chain 1 with Y129C, C134S, W146S, L148A, Y187V, Y269R
chain 2: B3 chain 2 with C129Y, S134C, S146W, A148L, V187Y
B10: RELAX0021 (Fc fusion)
chain 1: B2 chain 2 with C130Y, S147W, A149L, V188Y
chain 2: B2 chain 1 with C135S, W147S, L149A, Y188V
B11: RELAX0069 (Fc fusion)
chain 1: B4 chain 1 with Y269M
chain 2: B3 chain 2
B12: RELAX0075 (Fc fusion)
chain 1: B4 chain 1 with Y269R, F270I
chain 2: B3 chain 2
B13: RELAX0072 (Fc fusion)
chain 1: B4 chain 1 with Y269A
chain 2: B3 chain 2
B14: RELAX0022 (Fc fusion)
chain 1: B2 chain 2 with C130Y
chain 2: B2 chain 1 with C135S

What was measured:
Assay in all cases: cell-based or functional assay
mouse RXFP1 [1] = target: T1, mouse RXFP1
human RXFP1 [2] = target: T2, human RXFP1
human RXFP2 [3] = target: T3, human RXFP2 (human, UniProt Q8WXD0 1-754)
T3 sequence (Q8WXD0 whole entry): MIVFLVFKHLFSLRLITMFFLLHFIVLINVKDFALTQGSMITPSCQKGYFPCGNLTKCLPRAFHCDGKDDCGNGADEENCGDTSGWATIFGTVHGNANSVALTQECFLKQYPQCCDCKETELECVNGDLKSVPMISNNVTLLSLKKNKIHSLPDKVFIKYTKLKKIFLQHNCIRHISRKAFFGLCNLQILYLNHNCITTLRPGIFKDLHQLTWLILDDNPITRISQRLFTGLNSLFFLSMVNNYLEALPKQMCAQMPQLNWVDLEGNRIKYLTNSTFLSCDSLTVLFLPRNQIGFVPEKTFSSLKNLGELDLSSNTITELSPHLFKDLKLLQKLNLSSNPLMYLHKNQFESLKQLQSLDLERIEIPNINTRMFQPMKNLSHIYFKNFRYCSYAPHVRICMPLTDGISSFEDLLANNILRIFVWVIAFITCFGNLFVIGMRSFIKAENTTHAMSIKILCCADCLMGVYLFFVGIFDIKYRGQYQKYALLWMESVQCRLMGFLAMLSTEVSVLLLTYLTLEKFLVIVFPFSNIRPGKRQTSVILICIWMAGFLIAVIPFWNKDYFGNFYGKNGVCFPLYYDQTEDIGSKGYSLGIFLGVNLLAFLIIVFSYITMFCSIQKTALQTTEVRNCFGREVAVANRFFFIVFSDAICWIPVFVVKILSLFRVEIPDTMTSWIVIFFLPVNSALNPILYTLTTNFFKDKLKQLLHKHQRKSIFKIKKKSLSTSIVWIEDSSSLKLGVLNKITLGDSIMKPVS

mouse RXFP1 [4] = target: T1, mouse RXFP1; remark: listed apart in the source
human RXFP1 [5] = target: T2, human RXFP1; remark: listed apart in the source
human RXFP2 [6] = target: T3, human RXFP2; remark: listed apart in the source

Binder	EC50 mRXFP1 (M), cAMP HTRF assay (mouse RXFP1 [1])	EC50 hRXFP1 (M), cAMP HTRF assay (human RXFP1 [2])	EC50 hRXFP2 (M), cAMP HTRF assay (human RXFP2 [3])	EC50 mRXFP1 (M), cAMP HTRF assay (mouse RXFP1 [4])	EC50 hRXFP1 (M), cAMP HTRF assay (human RXFP1 [5])	EC50 hRXFP2 (M), cAMP HTRF assay (human RXFP2 [6])
B1	2.88e-11 M	5.88e-11 M	> 1.09e-07 M			
B2	2.79e-11 M	4.41e-11 M	3.54e-08 M			
B3				4.36e-11 M	7.15e-11 M	> 1.79e-07 M
B4				4.15e-11 M	5.7e-11 M	8.63e-08 M
B5				4.46e-11 M	1.96e-10 M	> 1.38e-07 M
B6				4.53e-11 M	5.45e-11 M	9.21e-08 M
B7				5.02e-11 M	6.67e-11 M	1.07e-07 M
B8				3.93e-11 M	6.87e-11 M	1.15e-07 M
B9	1.56e-11 M	4.6e-11 M	4.26e-08 M			
B10	4.14e-11 M	8.27e-11 M				
B11				3.69e-11 M	5.76e-11 M	> 1.62e-07 M
B12				6.14e-11 M	9.47e-11 M	> 1.43e-07 M
B13				4.03e-11 M	8.53e-11 M	> 2.3e-07 M
B14	3.28e-11 M	4.74e-11 M				
